T1: EGF1-4 domains of human Protein S with C-terminal HPC4 tag (human, UniProt P07225 114-286, partial hydroxylation of Asn or Asp in the EGF domains (detected by MS))
T1 construct: also called hEGF1-4; human Protein S EGF1-4
T1 sequence: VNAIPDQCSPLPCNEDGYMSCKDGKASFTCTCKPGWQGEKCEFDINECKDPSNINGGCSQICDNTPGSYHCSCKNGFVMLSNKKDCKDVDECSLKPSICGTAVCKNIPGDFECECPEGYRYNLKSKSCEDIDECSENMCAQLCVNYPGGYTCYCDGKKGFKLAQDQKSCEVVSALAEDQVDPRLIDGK

T2: EGF domain 1 and 2 of recombinant human Protein S (human, UniProt P07225 114-200, limits assumed)
T2 construct: domain: EGF domain 1 and 2; also called hEGF1-2
T2 sequence (looked up): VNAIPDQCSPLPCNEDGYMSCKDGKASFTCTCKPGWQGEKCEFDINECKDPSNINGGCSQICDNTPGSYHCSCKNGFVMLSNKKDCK

T3: Gla-domain deleted recombinant human Protein S (human, UniProt P07225 114-676)
T3 construct: also called hPS-dGla; desGla human Protein S
T3 sequence: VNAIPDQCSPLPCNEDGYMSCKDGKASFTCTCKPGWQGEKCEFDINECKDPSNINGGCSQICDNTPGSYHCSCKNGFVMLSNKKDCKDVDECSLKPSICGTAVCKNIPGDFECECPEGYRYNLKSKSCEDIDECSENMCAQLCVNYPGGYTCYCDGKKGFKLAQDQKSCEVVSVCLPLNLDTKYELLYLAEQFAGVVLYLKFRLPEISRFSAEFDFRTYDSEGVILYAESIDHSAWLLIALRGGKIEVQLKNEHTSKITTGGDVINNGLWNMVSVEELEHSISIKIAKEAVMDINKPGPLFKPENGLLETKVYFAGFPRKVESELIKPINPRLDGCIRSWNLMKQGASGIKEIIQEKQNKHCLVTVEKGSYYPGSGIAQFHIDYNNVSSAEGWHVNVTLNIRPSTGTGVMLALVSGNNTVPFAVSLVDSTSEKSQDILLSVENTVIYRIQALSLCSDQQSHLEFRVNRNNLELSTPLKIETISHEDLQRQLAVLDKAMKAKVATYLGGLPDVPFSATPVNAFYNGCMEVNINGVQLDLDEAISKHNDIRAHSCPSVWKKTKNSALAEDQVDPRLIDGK

T4: C4b-Binding Protein (UniProt P04003 49-597; P20851 18-252)
T4 construct: Bought protein; also called C4BP; C4b-BP
T4 sequence (looked up) 1: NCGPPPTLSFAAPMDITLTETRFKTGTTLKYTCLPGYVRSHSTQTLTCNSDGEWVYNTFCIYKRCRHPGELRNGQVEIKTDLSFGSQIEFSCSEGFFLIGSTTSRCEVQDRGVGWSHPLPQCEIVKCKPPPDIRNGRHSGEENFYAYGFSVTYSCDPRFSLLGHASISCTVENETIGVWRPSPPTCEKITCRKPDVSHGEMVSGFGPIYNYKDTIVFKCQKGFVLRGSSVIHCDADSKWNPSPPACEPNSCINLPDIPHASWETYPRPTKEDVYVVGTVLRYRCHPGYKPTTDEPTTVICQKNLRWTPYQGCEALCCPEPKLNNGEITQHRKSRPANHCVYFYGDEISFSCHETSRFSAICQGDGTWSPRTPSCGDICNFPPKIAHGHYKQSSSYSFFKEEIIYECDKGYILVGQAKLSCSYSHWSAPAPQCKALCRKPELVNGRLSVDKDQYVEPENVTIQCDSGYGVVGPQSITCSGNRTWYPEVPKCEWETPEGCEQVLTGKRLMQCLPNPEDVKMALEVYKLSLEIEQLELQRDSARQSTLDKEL
T4 sequence (looked up) 2: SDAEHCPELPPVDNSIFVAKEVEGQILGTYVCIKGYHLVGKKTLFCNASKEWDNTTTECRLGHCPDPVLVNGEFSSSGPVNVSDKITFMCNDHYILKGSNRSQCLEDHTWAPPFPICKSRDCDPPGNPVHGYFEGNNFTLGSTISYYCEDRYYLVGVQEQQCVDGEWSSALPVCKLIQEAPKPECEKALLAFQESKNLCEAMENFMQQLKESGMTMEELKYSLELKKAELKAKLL

B1: M-hProtS-6F230A10 monoclonal antibody (antibody, mouse IgG1, V domains shown)
VH: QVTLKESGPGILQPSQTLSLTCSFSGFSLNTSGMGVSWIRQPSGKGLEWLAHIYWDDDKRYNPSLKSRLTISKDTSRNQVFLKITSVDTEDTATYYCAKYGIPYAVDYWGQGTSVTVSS
VL: QIVLTQSPAIMSASPGEKVTMTCSASSSVSYMYWYQQKPGSSPRLLIYDTSNLASGVPVRFSGSGSGTSYSLTISRMEAEDAATYYCQQWSSYPLTFGAGTKLELKR
B2: human Protein S (plasma derived) (other)
chain: ANSLLEETKQGNLERECIEELCNKEEAREVFENDPETDYFYPKYLVCLRSFQTGLFTAARQSTNAYPDLRSCVNAIPDQCSPLPCNEDGYMSCKDGKASFTCTCKPGWQGEKCEFDINECKDPSNINGGCSQICDNTPGSYHCSCKNGFVMLSNKKDCKDVDECSLKPSICGTAVCKNIPGDFECECPEGYRYNLKSKSCEDIDECSENMCAQLCVNYPGGYTCYCDGKKGFKLAQDQKSCEVVSVCLPLNLDTKYELLYLAEQFAGVVLYLKFRLPEISRFSAEFDFRTYDSEGVILYAESIDHSAWLLIALRGGKIEVQLKNEHTSKITTGGDVINNGLWNMVSVEELEHSISIKIAKEAVMDINKPGPLFKPENGLLETKVYFAGFPRKVESELIKPINPRLDGCIRSWNLMKQGASGIKEIIQEKQNKHCLVTVEKGSYYPGSGIAQFHIDYNNVSSAEGWHVNVTLNIRPSTGTGVMLALVSGNNTVPFAVSLVDSTSEKSQDILLSVENTVIYRIQALSLCSDQQSHLEFRVNRNNLELSTPLKIETISHEDLQRQLAVLDKAMKAKVATYLGGLPDVPFSATPVNAFYNGCMEVNINGVQLDLDEAISKHNDIRAHSCPSVWKKTKNS
notes: Bought plasma-derived human Protein S (Haematologic Technologies or Enzyme Research Laboratories); also called Plasma PS; free Protein S
B3: 0322-0000-1139 (Fab, V domains shown)
VH: QVQLQQPGAELVRPGASVKLSCKASGYTFTSYWINWVKQRPEQGLEWIGRIDPYDSETHYNQKFKDKAILTVDKSSSTAYMQLSSLTSEDSAVYYCARWGGSGYAMDYWGQGTSVTVSS
VL: QIVLSQSPAILSASPGEKVTMTCRASSSVSYMYWYQQKPGSSPKPWIYATSNLASGVPARFSGSGSGTSYSLTISRVEAEDAATYYCQQWSSIPPTFGGGTKLEIKR
notes: also called Fab 1139
B4: 0322-0000-1069 (murine-human IgG4 chimer) (antibody, V domains shown)
VH: B3 VH
VL: B3 VL
notes: Mouse variable domains on human IgG4(S241P) / human kappa constant regions

Key:
[1] = target: T1, EGF1-4 domains of human Protein S with …; experiment: ELISA, recombinant antibody
[2] = target: B2; experiment: ELISA, recombinant antibody
[3] = target: T2, EGF domain 1 and 2 of recombinant human …; experiment: ELISA, recombinant antibody
[4] = target: T3, Gla-domain deleted recombinant human …; experiment: ELISA, recombinant antibody
C4b-Binding Protein = target: T4, C4b-Binding Protein; experiment: SPR (Biacore T200), C4BP captured by immobilized polyclonal anti-C4BP alpha chain antibody
Procedure: (§1) In brief, a polyclonal anti-C4BP antibody targeting the alpha chain (ab83755 from abcam) was immobilized on a CM5 Biacore sensor chip by standard amine coupling chemistry. […] The experiment was conducted in 10 mM Hepes, pH 7.4; 150 mM NaCl; 10 M CaCl₂ supplemented with 0.005% Tween20 and the chip was regenerated with glycine-HCl pH 1.7.

[5] = target: B2; experiment: SPR (Biacore T200), Fab on Protein S captured on C4BP
Procedure: as §1

[6] = target: B2; experiment: SPR; protein S binding to the full length antibody

B1
binding result [1]: binds
binding result [2]: binds
binding result [3]: no binding
binding result [4]: binds

B2
Kd (C4b-Binding Protein): 0.002 µM

B3
Kd [5]: 0.01 µM

B4
Kd [6]: 0.02 µM

— US20160297892A1 (Novo Nordisk, published 2016)
